B1: Proline-serine-threonine phosphatase-interacting protein 1 (Homo sapiens), O43586 (parent)
chain: MMPQLQFKDAFWCRDFTAHTGYEVLLQRLLDGRKMCKDMEELLRQRAQAEERYGKELVQIARKAGGQTEINSLRASFDSLKQQMENVGSSHIQLALTLREELRSLEEFRERQKEQRKKYEAVMDRVQKSKLSLYKKAMESKKTYEQKCRDADDAEQAFERISANGHQKQVEKSQNKARQCKDSATEAERVYRQSIAQLEKVRAEWEQEHRTTCEAFQLQEFDRLTILRNALWVHSNQLSMQCVKDDELYEEVRLTLEGCSIDADIDSFIQAKSTGTEPPAPVPYQNYYDREVTPLTSSPGIQPSCGMIKRFSGLLHGSPKTTSLAASAASTETLTPTPERNEGVYTAIAVQEIQGNPASPAQEYRALYDYTAQNPDELDLSAGDILEVILEGEDGWWTVERNGQRGFVPGSYLEKL
partner: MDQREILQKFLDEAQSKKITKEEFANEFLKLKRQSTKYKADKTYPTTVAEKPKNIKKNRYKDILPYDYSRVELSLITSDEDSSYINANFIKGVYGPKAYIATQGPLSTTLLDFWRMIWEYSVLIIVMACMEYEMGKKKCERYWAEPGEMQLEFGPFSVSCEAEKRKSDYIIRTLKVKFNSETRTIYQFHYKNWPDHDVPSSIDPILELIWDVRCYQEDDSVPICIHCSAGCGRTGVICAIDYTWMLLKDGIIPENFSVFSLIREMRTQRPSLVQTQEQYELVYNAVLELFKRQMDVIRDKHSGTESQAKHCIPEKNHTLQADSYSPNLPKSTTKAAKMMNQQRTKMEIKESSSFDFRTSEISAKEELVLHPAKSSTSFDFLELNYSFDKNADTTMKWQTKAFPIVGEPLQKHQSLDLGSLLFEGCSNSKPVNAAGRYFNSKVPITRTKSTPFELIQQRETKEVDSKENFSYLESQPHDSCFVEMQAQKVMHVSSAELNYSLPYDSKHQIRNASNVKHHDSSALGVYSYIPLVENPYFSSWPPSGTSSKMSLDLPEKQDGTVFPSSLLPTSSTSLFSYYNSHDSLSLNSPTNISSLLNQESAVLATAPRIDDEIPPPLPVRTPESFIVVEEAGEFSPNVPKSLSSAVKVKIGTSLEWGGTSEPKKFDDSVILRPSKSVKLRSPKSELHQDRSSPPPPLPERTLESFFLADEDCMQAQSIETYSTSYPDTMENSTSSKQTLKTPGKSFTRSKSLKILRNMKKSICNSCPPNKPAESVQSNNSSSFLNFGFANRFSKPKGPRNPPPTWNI

Variants of B1 are the subject of the first assay. The conditions noted are these: with ptn22_human PTPN22, Q9Y2R2.
For the variant W232A, the “effect of a mutation on the interaction” value is “disrupting interaction”.

Another assay covers variants of B1. The conditions noted are these: with ptn22_human PTPN22, Q9Y2R2. This is another data set of the same source.
E250Q: the “effect of a mutation on the interaction” value is “disrupting interaction”.
